Data as given in US10005846 (LIFEARC, dated 2018).

Tests used:
[1] = target: T1, human transglutaminase type 2 (TG2) (human, UniProt P21980 1-687); test: SPR (Biacore T200), antibody captured on anti-human IgG1 Fc chip, TG2 injected; calcium condition not marked in the row
T1 construct: Recombinant full-length human TG2 (Zedira; cat; T002 in the Biacore work); Also used here for the endogenous TG2 of HepG2 lysate and HK-2 cells; also called hTG2; rhTG2
T1 sequence: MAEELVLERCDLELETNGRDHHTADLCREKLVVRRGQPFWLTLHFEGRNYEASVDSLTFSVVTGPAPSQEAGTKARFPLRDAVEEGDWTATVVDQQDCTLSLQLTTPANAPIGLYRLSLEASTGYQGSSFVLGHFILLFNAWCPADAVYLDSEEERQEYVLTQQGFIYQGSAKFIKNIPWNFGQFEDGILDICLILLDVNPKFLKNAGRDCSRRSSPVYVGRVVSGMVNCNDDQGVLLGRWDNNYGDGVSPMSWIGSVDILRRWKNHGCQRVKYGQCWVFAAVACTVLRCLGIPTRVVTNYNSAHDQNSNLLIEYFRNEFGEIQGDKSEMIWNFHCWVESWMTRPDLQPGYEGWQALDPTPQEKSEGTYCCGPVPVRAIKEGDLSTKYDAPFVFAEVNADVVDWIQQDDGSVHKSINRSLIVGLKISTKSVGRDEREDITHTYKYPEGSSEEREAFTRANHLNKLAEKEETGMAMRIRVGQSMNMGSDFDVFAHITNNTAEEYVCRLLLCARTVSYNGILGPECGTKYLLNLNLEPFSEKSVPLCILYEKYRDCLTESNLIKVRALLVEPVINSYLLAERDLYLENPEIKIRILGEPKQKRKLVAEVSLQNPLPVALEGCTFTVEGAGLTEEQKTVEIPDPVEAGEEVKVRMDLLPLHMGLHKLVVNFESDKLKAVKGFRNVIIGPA
Method: (§1) Recombinant cynomolgus monkey TG2 was obtained from Trenzyme. Surface plasmon resonance (SPR) was measured on a Biacore T200 instrument (GE Healthcare). CM5 chips (GE Healthcare cat. no.: BR-1006-68) were coated with monoclonal mouse anti-human IgG1 (Fc) (MAH) antibody (GE Healthcare cat. no.: BR-1008-39) by amine-coupling as described in the manufacturers instructions. HBS-EP+ buffer (0.01 M HEPES, 0.15 M NaCl, 3 mM EDTA, 0.05% v/v Surfactant P20) and HBS-P+ buffer (0.01 M HEPES, 0.15 M NaCl, 0.05% Surfactant P20) were purchased from GE Healthcare as 10× stocks (cat. nos.: BR-1006-69 and BR-1006-71). Calcium Chloride solution was obtained from Sigma Aldrich (cat. no.:21115).
(§2) The method employed to determine the affinity of the anti-TG2 antibodies involved the capture of the chimeric or humanised antibodies on a MAH coated CM5 chip, followed by the injection of a series of TG2 samples in running buffer. The running buffer was 1×HBS-P+ containing 1 mM CaCl_2, or 1×HBS-EP+ for calcium-free experiments. Antibody capture was carried out for a contact time of 120 seconds at a flow rate of 10 μl/min resulting in the capture of approximately 40-80 RU. TG2 was injected over the immobilised antibody at concentrations ranging from 25 nM to 400 nM with a contact time up to 600 seconds at a flow rate of 30 μl/min. Dissociation of TG2 was typically measured for up to 5400 seconds (1.5 hours). Regeneration of the chip was then performed using 3 M MgCl_2, for a contact time of 60 seconds at a flow rate of […], followed by a 300 s stabilisation period before the next sample. For each of human and cynomolgus monkey TG2, at least 5 injections at a variety of concentrations were performed in at least two separate experiments.
(§3) Kinetic data were exported from the Biacore T200 Evaluation Software and analysed using GraphPad Prism, where the association phases and dissociation phases were analysed separately using a one phase association model and one-phase exponential decay model respectively. Association rates ($kon$) were calculated for each curve individually, and dissociation rates ($koff$) values from the long dissociation phase data collected. Where $koff$ values were calculated to be $<1\times10^-5$ s^-1, values were set at 1×10^-5 for analysis, as rates slower than this could not be estimated accurately.

cynomolgus monkey TG2 [2] = target: T2, cynomolgus monkey TG2 (cynomolgus monkey, UniProt A0A2K5VXI8 1-687); test: as above
T2 construct: Bought recombinant protein; also called cynomogulus monkey TG2; cyano TG2
T2 sequence: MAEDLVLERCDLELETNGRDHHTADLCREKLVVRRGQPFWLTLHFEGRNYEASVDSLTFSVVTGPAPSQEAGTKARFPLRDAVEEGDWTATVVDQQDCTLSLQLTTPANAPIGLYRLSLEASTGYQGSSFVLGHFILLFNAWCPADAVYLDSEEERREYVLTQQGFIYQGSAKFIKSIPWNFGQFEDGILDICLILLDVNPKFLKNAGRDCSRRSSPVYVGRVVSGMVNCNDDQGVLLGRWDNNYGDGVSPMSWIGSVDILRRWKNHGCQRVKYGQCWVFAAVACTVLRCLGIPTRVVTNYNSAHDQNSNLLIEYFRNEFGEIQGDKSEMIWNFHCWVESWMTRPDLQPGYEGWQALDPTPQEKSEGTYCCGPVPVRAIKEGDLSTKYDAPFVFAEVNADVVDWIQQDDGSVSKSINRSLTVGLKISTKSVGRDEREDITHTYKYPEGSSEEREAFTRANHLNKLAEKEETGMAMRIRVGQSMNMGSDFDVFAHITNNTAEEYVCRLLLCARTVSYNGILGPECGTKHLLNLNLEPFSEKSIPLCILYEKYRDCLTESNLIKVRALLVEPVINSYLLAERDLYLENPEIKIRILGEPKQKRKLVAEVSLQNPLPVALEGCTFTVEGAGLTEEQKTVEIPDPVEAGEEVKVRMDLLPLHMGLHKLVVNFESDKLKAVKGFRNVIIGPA
Method: as §1, §2, §3

[3] = target: T1, human transglutaminase type 2 (TG2); test: cell-based or functional assay
[4] = target: T1, human transglutaminase type 2 (TG2); test: cell-based or functional assay; remark: listed apart in the source
cynomolgus monkey TG2 [5] = target: T2, cynomolgus monkey TG2; test: ELISA on immobilised cynomolgus monkey TG2; r2 0.9993; EC50 95% confidence range 0.3887 to 0.4489 [panel A]
Method: (§4) Antibody binding to human and cynomolgus monkey TG2 was determined in an ELISA assay. Clear polystyrene "Maxisorp" 96-well plates (Nunc) were coated with 50 ng purified human or cynomogulus monkey TG2 in 50 µl 0.05 M carbonate-bicarbonate buffer pH 9.6 at 4° C. overnight. Control wells were coated with 50 µl 100 µg/ml bovine serum albumin (BSA). Plates were washed 3× with 300 µl phosphate-buffered saline pH7.4 (PBS) containing 0.1% Tween 20 (PBST) and blocked with 300 µl 3% w/v Marvel skimmed milk in PBS for 1 hour at room temperature. After 3× wash with PBST, 50 µl protein-A purified chimeric or humanised anti-TG2 antibodies or human IgG1 kappa […] control antibody or CUB7402 (Abcam) were serially diluted 4-fold from a top concentration of 50 nM in PBS, and added to the plate in duplicate. […] After 3× washes with PBST, the plates were developed with 50 µl TMB substrate (Sigma) for 5 min at room temperature before stopping the reaction with 25 µl 0.5M H2SO4 and reading absorbance at 450 nm in a microtiter plate reader (BioTek EL808). Dose response curves were analysed and EC50 values and other statistical parameters determined using a 4-parameter logistical fit of the data (GraphPad Prism).

[6] = target: T1, human transglutaminase type 2 (TG2); test: cell-based or functional assay; remark: listed apart in the source
cynomolgus monkey TG2 [7] = target: T2, cynomolgus monkey TG2; test: cell-based or functional assay
[8] = target: T1, human transglutaminase type 2 (TG2); test: ELISA on immobilised human TG2; r2 0.9985; EC50 95% confidence range 0.3927 to 0.4971 [panel A]
Method: as §4

[9] = target: T1, human transglutaminase type 2 (TG2); test: anti-huTG2 ELISA of HEK293F supernatants
Method: Supernatants from HEK293F cells co-transfected with different combinations of humanised AB1 light chains and AB1 heavy chain vectors were assayed in an anti-human IgG ELISA to determine concentration and in an anti huTG2 ELISA. Each supernatant was assayed in triplicate and $IC50$'s determined.
HEK 293F cells were co-transfected with combinations of different humanised light chain vectors in association with different humanised heavy chain vectors. Recombinant human TG2 was used to measure antibody binding by ELISA. […] A similar approach was used to identify optimal pairs of humanized BB7 heavy and light chains, and humanised DC1 heavy and light chains.

Binder | Kd [1] [nM] | koff [1] [s⁻¹] | kon [1] [M⁻¹ s⁻¹] | Kd (cynomolgus monkey TG2 [2]) [nM] | koff (cynomolgus monkey TG2 [2]) [s⁻¹] | kon (cynomolgus monkey TG2 [2]) [M⁻¹ s⁻¹] | binding result [9] | other results
hAB005 (hAB001AJ) humanised AB1 antibody (antibody, V domains shown, captured by anti-human IgG1 (Fc); also called Heavy Chain version RHA with Light Chain version RKJ) VH: EVQLLESGGGLVQPGGSLRLSCAASGFTFSSSAMSWVRQAPGKGLEWVSTISVGGGKTYYPDSVKGRFTISRDNSKNTLYLQMNSLRAEDTAVYYCAKLISLYWGQGTLVTVSS VL: DIQMTQSPSSLSASVGDRVTITCKASQDINSYLTWFQQKPGKAPKSLIYRTNRLFDGVPSRFSGSGSGTDFFLTISSLQPEDFATYYCLQYDDFPYTFGQGTKVEIK | < 0.05 | < 1e-05 | 190000 | 0.24 | 3.4e-05 | 140000 | – | IC50, extracellular TG activity of HK-2 cells, biotin cadaverine incorporation into fibronectin [3]: 71.8 nM; IC50 of enzymatic inhibition, dansylated lysine incorporation into N,N-dimethylated casein; 2 batches shown [continued), panel C] [4]: 6.87 nM
cDC001 chimeric antibody (murine DC1 variable regions) (antibody, human IgG1, V domains shown, also called Chimeric DC1) VH: EVQLVESGGGLVKPGGSLKLSCAASGFTLSTHAMSWVRQTPEKRLEWVATISSGGRSTYYPDSVKGRFTISRDNVKNTLYLQLSSLRSEDTAVYFCARLISTYWGQGTTLTVSS VL: DITMTQSPSSIYASLGERVTITCKASQDINSYLTWFQQKPGKSPKILIYLVNRLVDGVPSRFSGSGSGQDYALTISSLEYEDMGIYYCLQYDDFPYTFGGGTKLEIK | < 0.03 | < 1e-05 | 320000 | < 0.024 | < 1e-05 | 420000 | – | EC50 (cynomolgus monkey TG2 [5]): 0.418 nM; IC50 of enzymatic inhibition, dansylated lysine incorporation into N,N-dimethylated casein [continued), panel C] [6]: 0.851 nM; IC50 of enzymatic inhibition, dansylated lysine incorporation into N,N-dimethylated casein [panel A] (cynomolgus monkey TG2 [7]): 5.86 nM; EC50 [8]: 0.442 nM
VHc/RKE (antibody, V domains shown, also called hAB001HcE) VH: EVQLVESGGGLVKPGGSLKLSCAASGFTLSSSAMSWVRQTPDRRLEWVATISVGGGKTYYPDSVKGRFTISRDNAKNTLYLQMNSLRSEDTAMYYCAKLISLYWGQGTTLTVSS VL: EIVLTQSPSSLSASVGDRVTITCKASQDINSYLTWYQQKPGKAPKLLIYRTNRLFDGVPSRFSGSGSGTDFFFTISSLQPEDFGTYYCLQYDDFPYTFGGGTKLEIK | – | – | – | – | – | – | binds | –
VHc/RKJ (antibody, V domains shown, also called hAB001HcJ) VH: EVQLVESGGGLVKPGGSLKLSCAASGFTLSSSAMSWVRQTPDRRLEWVATISVGGGKTYYPDSVKGRFTISRDNAKNTLYLQMNSLRSEDTAMYYCAKLISLYWGQGTTLTVSS VL: DIQMTQSPSSLSASVGDRVTITCKASQDINSYLTWFQQKPGKAPKSLIYRTNRLFDGVPSRFSGSGSGTDFFLTISSLQPEDFATYYCLQYDDFPYTFGQGTKVEIK | – | – | – | – | – | – | binds | –
RHA/VKc (antibody, V domains shown, also called hAB001AKc) VH: EVQLLESGGGLVQPGGSLRLSCAASGFTFSSSAMSWVRQAPGKGLEWVSTISVGGGKTYYPDSVKGRFTISRDNSKNTLYLQMNSLRAEDTAVYYCAKLISLYWGQGTLVTVSS VL: EIVLTQSPSSMYASLGERVTITCKASQDINSYLTWFQQKPGKSPKTLIYRTNRLFDGVPSRFSGSGSGQDFFLTISSLEYEDMGIYYCLQYDDFPYTFGGGTKLEIK | – | – | – | – | – | – | binds | –
RHA/VKc1 (antibody, V domains shown, also called hAB001AKc1) VH: EVQLLESGGGLVQPGGSLRLSCAASGFTFSSSAMSWVRQAPGKGLEWVSTISVGGGKTYYPDSVKGRFTISRDNSKNTLYLQMNSLRAEDTAVYYCAKLISLYWGQGTLVTVSS VL: DIQMTQSPSSMYASLGERVTITCKASQDINSYLTWFQQKPGKSPKTLIYRTNRLFDGVPSRFSGSGSGQDFFLTISSLEYEDMGIYYCLQYDDFPYTFGGGTKLEIK | – | – | – | – | – | – | binds | –
